This is an account of results in patent US20220125824A1.

In this experiment the target is mCherry-MazF (E. coli MazF ribonuclease fused to the C terminus of mCherry) (E. coli) (UniProt P0AE70). In words: cell-based or functional assay.
Chain of UniProt P0AE70 (P0AE70 whole entry, the tested form may be a part): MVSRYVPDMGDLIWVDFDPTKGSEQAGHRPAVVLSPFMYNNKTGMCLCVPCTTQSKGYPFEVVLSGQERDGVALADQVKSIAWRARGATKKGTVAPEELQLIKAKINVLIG

Turning to “E. coli antitoxin MazE (from UniProt P0AE72 1-82)”, the mortality (MTT assay) of lung cancer cells co-infected with MazF and MazE viruses at a 1:0.5 MOI ratio is 36%; the yield of MazF-encoding adenovirus in HEK293 packaging cells that constitutively express MazE, compared with parental HEK293 cells (orders of magnitude) worked out at 2.
